Laboratory results: article PMC4385932, “A transgenic mouse model to inducibly target prosurvival Bcl2 proteins with selective BH3 peptides in vivo” (Cell Death & Disease, 2015)

Target: T1, Bcl-xL (UniProt Q07817-1 1-233)
T1 construct: Bcl-xL, prosurvival Bcl-2 family protein
Assay: SPR; no format or conditions told

T1 sequence (Q07817 whole entry): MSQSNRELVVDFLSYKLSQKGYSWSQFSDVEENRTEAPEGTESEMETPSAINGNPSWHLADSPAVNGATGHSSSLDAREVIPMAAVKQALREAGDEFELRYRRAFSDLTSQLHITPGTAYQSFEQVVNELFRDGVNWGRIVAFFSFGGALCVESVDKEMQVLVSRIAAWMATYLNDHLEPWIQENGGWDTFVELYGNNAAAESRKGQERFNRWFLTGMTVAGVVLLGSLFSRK

Binder	Kd [nM]
BimSBad^mut (BimSBad with the Bad BH3 residue F121 mutated to alanine) (ligand, N-terminal FLAG tag left out. Same conventional swap limits and species assumption as m1.) MAKQPSDVSSECDREGRQLQPAERPPQLRPGAPTSLQTEPQASMRQAEPANLWAAQRYGRELRRMSDEAVDSFKKGVFLNNYQAAEDHPRMVILRLLRYIVRLVWRMH	8.5
BimSBad (BimS BH3-only protein in which the native BH3 sequence is replaced by the BH3 domain of Bad) (ligand, N-terminal FLAG tag left out. BimS = BimEL lacking 42-131. Swap limits are only in Figure 1a; the conventional 26-mer exchange is used (Bim 141-166, which is BimS 51-76, replaced by Bad 103-128). The) MAKQPSDVSSECDREGRQLQPAERPPQLRPGAPTSLQTEPQASMRQAEPANLWAAQRYGRELRRMSDEFVDSFKKGVFLNNYQAAEDHPRMVILRLLRYIVRLVWRMH	< 0.2
